“And” between values parts separate entries of the source, which are not always exact repeats. Equal entries are not always repeated.
Details: Aspergillus flavus, Thermal, DSC, reversible: No, whole UniProt chain shown
[1] = pH 6.95, Sodium phosphate 50 mM
[2] = pH 7.45, Sodium phosphate 50 mM

B1: Uricase wild type, Q00511 (protein)
chain: MSAVKAARYGKDNVRVYKVHKDEKTGVQTVYEMTVCVLLEGEIETSYTKADNSVIVATDSIKNTIYITAKQNPVTPPELFGSILGTHFIEKYNHIHAAHVNIVCHRWTRMDIDGKPHPHSFIRDSEEKRNVQVDVVEGKGIDIKSSLSGLTVLKSTNSQFWGFLRDEYTTLKETWDRILSTDVDATWQWKNFSGLQEVRSHVPKFDATWATAREVTLKTFAEDNSASVQATMYKMAEQILARQQLIETVEYSLPNKHYFEIDLSWHKGLQNTGKNAEVFAPQSDPNGLIKCTVGRSSLKSKL
Tm [1]: 65 °C
unfolding enthalpy (calorimetric) [1]: 16.3 kcal/mol
unfolding enthalpy (calorimetric) (pH 7.2, Sodium phosphate 50 mM): 75.8 kcal/mol and 48.1 kcal/mol
unfolding enthalpy (calorimetric) (pH 7.25, Sodium phosphate 50 mM): 72 kcal/mol and 53.3 kcal/mol
Tm [2]: 68.4 °C
unfolding enthalpy (calorimetric) [2]: 57.9 kcal/mol
Tm (pH 7.8, Sodium phosphate 50 mM): 50.1 °C
unfolding enthalpy (calorimetric) (pH 7.8, Sodium phosphate 50 mM): 82.8 kcal/mol
unfolding enthalpy (calorimetric) (pH 8.5, Tris-HCl 50 mM): 78.9 kcal/mol and 29.7 kcal/mol
Tm (pH 8.8, Tris-HCl 50 mM): 49.9 °C
unfolding enthalpy (calorimetric) (pH 8.8, Tris-HCl 50 mM): 80.1 kcal/mol
unfolding enthalpy (calorimetric) (pH 9.05, Tris-HCl 50 mM): 76.8 kcal/mol and 26.8 kcal/mol
unfolding enthalpy (calorimetric) (pH 9.5, carbonate 50 mM): 82.3 kcal/mol and 59.1 kcal/mol
